In patent publication US7173007:

Tested on: recombinant human cathelin-like protein (cathelin-like domain of hCAP18, residues 31-131), after removal of the N-terminal tag with enterokinase
Sequence (chain, as listed by the source): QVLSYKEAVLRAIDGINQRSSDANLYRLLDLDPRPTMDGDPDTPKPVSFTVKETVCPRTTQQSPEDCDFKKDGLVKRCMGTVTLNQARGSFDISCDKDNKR

human liver cathepsin L (Calbiochem), sequence (chain, as listed by the source): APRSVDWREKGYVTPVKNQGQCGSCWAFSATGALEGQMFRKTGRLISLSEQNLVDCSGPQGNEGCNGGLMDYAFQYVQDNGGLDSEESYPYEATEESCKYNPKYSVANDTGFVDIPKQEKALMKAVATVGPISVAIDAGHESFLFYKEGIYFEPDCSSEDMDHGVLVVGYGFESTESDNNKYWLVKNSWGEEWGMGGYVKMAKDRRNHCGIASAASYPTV

Substance: human liver cathepsin L (Calbiochem)
- hydrolysis of Z-Phe-Arg-AMC by cathepsin L alone and with cathelin-like protein: Data demonstrate inhibition of cathepsin L by the addition of cathelin-like recombinant protein
- slope of fluorescence generation (Z-Phe-Arg-AMC hydrolysis) with cathelin-like protein; cathepsin L alone gave 1.31: slope=1.31 vs 0.71, respectively
